From patent US20130089554A1 (EMERGENT PRODUCT DEVELOPMENT SEATTLE, published 2013) come the findings set out here.

Assay [1] deals with T1, RON Sema-PSI-AFH protein (human, UniProt Q04912 25-568).
T1 construct: Produced in CHOK1SV cells; also called soluble RON Sema-PSI-AFH; not shown: c-terminal tag including avidin, 3xFLAG and 6x histidine tags
T1 chain: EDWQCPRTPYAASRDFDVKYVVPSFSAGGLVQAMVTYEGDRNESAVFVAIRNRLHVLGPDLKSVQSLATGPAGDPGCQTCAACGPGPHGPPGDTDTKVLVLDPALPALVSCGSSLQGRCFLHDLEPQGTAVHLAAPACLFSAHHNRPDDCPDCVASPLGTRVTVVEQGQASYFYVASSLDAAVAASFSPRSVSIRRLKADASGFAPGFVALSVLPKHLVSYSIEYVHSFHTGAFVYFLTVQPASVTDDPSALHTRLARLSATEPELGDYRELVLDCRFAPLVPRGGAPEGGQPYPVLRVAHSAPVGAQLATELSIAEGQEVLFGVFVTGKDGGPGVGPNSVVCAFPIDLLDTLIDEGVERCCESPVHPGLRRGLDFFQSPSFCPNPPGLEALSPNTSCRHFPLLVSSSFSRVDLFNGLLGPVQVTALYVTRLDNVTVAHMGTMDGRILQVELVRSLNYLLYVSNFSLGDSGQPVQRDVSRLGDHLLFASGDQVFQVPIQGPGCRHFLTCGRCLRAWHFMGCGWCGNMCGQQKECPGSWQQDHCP
Kind of assay: SPR (Biacore T100); Interceptor captured by immobilized anti-human Fc, soluble RON Sema-PSI-AFH flowed over. The protocol:
(§1) The binding kinetics of RON-f murine antibody, SMIP and Interceptor to soluble RON Sema-PSI-AFH were determined using a Biacore T100 (GE Healthcare, Piscataway, N.J.). Anti-RON murine antibody was captured using immobilized anti-mouse Fc polyclonal antibody while the SMIP and Interceptor were captured by anti-human Fc monoclonal antibody. The capture antibodies, both from GE Healthcare, were covalently conjugated to a carboxylmethyl dextran surface (CM4) via amines using N-ethyl-N′-(3-dimethylaminopropyl)-carbodiimide hydrochloride and N-hydroxysuccinimide. The unoccupied sites of the activated surface were blocked by ethanolamine. […] During each cycle, a single concentration of soluble RON Sema-PSI-AFH was injected and then allowed to dissociate. At the end of each cycle, the surface was regenerated gently using 3M MgCl₂ which dissociates protein bound to the capture antibodies. Signal associated with binding to the reference cell was used to subtract for bulk refractive changes and blank (buffer-only) injections were used to correct for drift and system noise.
(§2) Kinetic parameters and affinities were determined using BIAevaluation software. The kₐ (M⁻¹s⁻¹) and kd (s⁻¹) rates of the interaction were used to calculate the affinity constant, KD (M), of the antibody/receptor interaction. The KD is defined as the ratio of the kd and kₐ constants (kd/kₐ). The RON-f01 murine antibody was tested in a single experiment while the RON-f02 SMIP and RON-f03 Interceptor molecules were each tested in three independent experiments. RON-f molecules were captured on a sensor chip with immobilized anti-Fc while soluble RON Sema-PSI-AFH protein was flowed over the surface at varying concentrations.
(In general: Surface plasmon resonance follows binding to a sensor surface in real time, without labels.)

In assay [2] the target is T2, human RON (recepteur d'origine Nantaise, MST1R), full length on cells (human, UniProt Q04912 25-1400).
T2 construct: Over-expressed on transfected NIH/3T3 cells, or native on BxPC-3 and MDA-MB-453 cells; also called native human RON
Kind of assay: flow cytometry, NIH/3T3 cells transfected with human RON, hybridoma supernatant. From the text:
NIH/3T3 cells transfected with human or macaque RON or empty vector, were dissociated with trypsin and stained at 1.6×10⁵ cells/sample on ice with hybridoma supernatants or purified antibodies diluted in Staining Buffer (2% FBS in Dulbecco's PBS). Unlabeled murine IgG (SouthernBiotech, Birmingham, Ala.) and the DX07 anti-RON β-chain antibody (Santa Cruz Biotechnology, Santa Cruz, Calif.) were employed as negative and positive controls respectively. Murine antibodies were detected with R-PE-conjugated goat anti-mouse IgG (SouthernBiotech). Samples were analyzed on a BD FACSCalibur flow cytometer fitted with an HTS using PlateManager and CellQuest Pro software (BD Biosciences, San Jose, Calif.). Data was plotted using FlowJo software (Tree Star, Ashland, Oreg.).
NIH/3T3 cells transfected with empty vector (dashed), human RON (dotted) or Macaca mulatta RON (solid) were stained with secondary antibody alone (FIG. 1A), 1 mg/ml murine IgG (FIG. 1B), 1 mg/ml DX07 anti-RON antibody (FIG. 1C), RON-e01 anti-RON hybridoma supernatant (FIG. 1D) or RON-f01 anti-RON hybridoma supernatant (FIG. 1E).
(In general: Flow cytometry measures light scatter and fluorescence of single cells or particles in a stream.)

For assay [3], the target named is T3, recombinant RON Sema-PSI protein (R&D Systems #1947-MS) (human, UniProt Q04912 25-571).
T3 construct: Bought protein, expressed in NS0 cells; not shown: carboxyl-terminal histidine tag
Kind of assay: ELISA, plate coated with 1 µg/ml recombinant RON Sema-PSI. The protocol:
(§3) To determine binding of murine antibodies to the Sema-PSI domain of RON, 96-well EIA/RIA microplates were coated with 1 μg/ml recombinant RON Sema-PSI (R&D Systems #1947-MS, Minneapolis, Minn.). This protein includes the Sema and PSI domains of human RON (Glu 25-Leu 571; see SEQ ID NO:784) coupled to a carboxyl-terminal histidine tag and expressed in the NS0 mouse myeloma cell line. Plates were blocked with 10% FBS in DPBS prior to adding hybridoma supernatants diluted […] in serum diluent. Murine antibodies bound to recombinant RON Sema-PSI were detected as described above.
(§4) “Diluent only” samples represent background binding in each assay when only serum diluent was run as the sample. As a positive control for IgG measurement and recombinant RON Sema-PSI binding, 250 ng/ml of an anti-human RON antibody (R&D Systems #MAB691, Minneapolis, Minn.) was tested in both ELISAs.
For orientation: An ELISA detects its analyte on a solid surface through an enzyme-linked reagent.

The target of assay [4] is T3, recombinant RON Sema-PSI protein (R&D …). Kind of assay: ELISA, plate coated with 1 µg/ml recombinant RON Sema-PSI, hybridoma supernatants. The protocol: as §3, §4
The target in assay [5] is T1, RON Sema-PSI-AFH protein. Kind of assay: SPR (Biacore T100); antibody captured by immobilized anti-mouse Fc, soluble RON Sema-PSI-AFH flowed over. The protocol: as §1, §2

B1: RON-f03 Interceptor (4C04 scFv, Interceptor Pair 2) (other)
chain 1: DIQMTQSPASQSASLGESVTITCLASQTIGTWLAWYQQKPGKSPQLLIYAATSLADGVPSRFSASGSGTKFSFKIDSLQSEDFVSYYCQQLYNTPWTFGGGTKLEIKGGGGSGGGGSGGGGSQIQLQQSGPELVKPGTSVKISCKASDYTLTDFYMNWVRQKPGQGLEWIGRIYPGTDKTRYNEKFRDKAILTVDTSSSTAYMQLSSLTSEDTAVYFCARSAYYGNYVAMDYWGQGTSVTVSSSASTKGPSVFPLAPSSKSTSGGTAALGCLVKDYFPEPVTVSWNSGALTSGVHTFPAVLQSSGLYSLSSVVTVPSSSLGTQTYICNVNHKPSNTKVDKKVRTEPKSSDKTHTCPPCPSGAPELLGGPSVFLFPPKPKDTLMISRTPEVTCVVVDVSHEDPEVKFNWYVDGVEVHNAKTKPREEQYNSTYRVVSVLTVLHQDWLNGKEYKCKVSNKALPAPIEKTISKAKGQPREPQVYTLPPSRDELTKNQVSLTCLVKGFYPSDIAVEWESNGQPENNYKTTPPVLDSDGSFFLYSKLTVDKSRWQQGNVFSCSVMHEALHNHYTQKSLSLSPGKSRTVAAPSVFIFPPSDEQLKSGTASVVCLLNNFYPREAKVQWKVDNALQSGNSQESVTEQDSKDSTYSLSSTLTLSKADYEKHKVYACEVTHQGLSSPVTKSFNRGE
chain 2: TVAAPSVFIFPPSDEQLKSGTASVVCLLNNFYPREAKVQWKVDNALQSGNSQESVTEQDSKDSTYSLSSTLTLSKADYEKHKVYACEVTHQGLSSPVTKSFNRGERTEPKSSDKTHTCPPCPSGAPELLGGPSVFLFPPKPKDTLMISRTPEVTCVVVDVSHEDPEVKFNWYVDGVEVHNAKTKPREEQYNSTYRVVSVLTVLHQDWLNGKEYKCKVSNKALPAPIEKTISKAKGQPREPQVYTLPPSRDELTKNQVSLTCLVKGFYPSDIAVEWESNGQPENNYKTTPPVLDSDGSFFLYSKLTVDKSRWQQGNVFSCSVMHEALHNHYTQKSLSLSPGKSRASTKGPSVFPLAPSSKSTSGGTAALGCLVKDYFPEPVTVSWNSGALTSGVHTFPAVLQSSGLYSLSSVVTVPSSSLGTQTYICNVNHKPSNTKVDKKV
notes: also called RON-f03 2nd generation interceptor
Turning to B1, in the assay with RON Sema-PSI-AFH protein [1], the Kd (commonly the constant that tells how readily two partners part at equilibrium) came out at 0.156 nM; the koff – broadly, a measure of how fast the partners let go of each other – was determined as 6.78e-05 s⁻¹; the kon – broadly, a measure of how fast the partners come together – worked out at 434000 M⁻¹ s⁻¹.

B2: RON-e01 murine antibody (11H09 hybridoma) (antibody, V domains shown)
VH: QVQLQQSGAELAKPGASVKMSCKSSGYTFTSYWIHWVKERPGQGLEWIGYIYPTTGYTESNQKFKDKATLTADKSSSTAYMQLSSLTSEDSAVYYCFLLRPWYFDVWGAGTTVTVSS
VL: DIQMTQSPSSLSASLGERVSLTCRASQDIGSSLSWLQQEPDGTIKRLIYSTSSLDSGVPKRFSGSRSGSDYSLTISSLESEDFVDYYCLQYASSPWTFGGGTKLEIK
notes: Murine monoclonal antibody from a hybridoma, used as supernatant or purified; also called RON-e01 Antibody
For B2, the binding result in assay [2] was “binds”; in assay [3], “no binding”.

B3: RON-f01 murine antibody (4C04 hybridoma) (antibody, V domains shown)
VH: QIQLQQSGPELVKPGTSVKISCKASDYTLTDFYMNWVRQKPGQGLEWIGRIYPGTDKTRYNEKFRDKAILTVDTSSSTAYMQLSSLTSEDTAVYFCARSAYYGNYVAMDYWGQGTSVTVSL
VL: DIQMTQSPASQSASLGESVTITCLASQTIGTWLAWYQQKPGKSPQLLIYAATSLADGVPSRFSASGSGTKFSFKIDSLQSEDFVSYYCQQLYNTPWTFGGGTKLEIK
notes: Murine monoclonal antibody from a hybridoma; also called RON-f01 Antibody
Regarding B3, the binding result in assay [2] was “binds”. In addition, in assay [4], the binding result is reported as “binds”. In the assay with RON Sema-PSI-AFH protein [5], the dissociation constant Kd turned out to be 0.15 nM, the koff came to 9.49e-05 s⁻¹ and the association rate constant (kon) worked out at 632000 M⁻¹ s⁻¹.
